Data published in US20260137759A1.

Legend:
TGFβ1 (R&D systems) = TGFβ1 (R&D systems) (UniProt P01137); test: cell-based or functional assay
[1] = biological target: IL2Rβ and common γ chain (on 32Dβ cells); test: cell-based or functional assay

Sequence of UniProt P01137 (P01137 279-390 limits assumed): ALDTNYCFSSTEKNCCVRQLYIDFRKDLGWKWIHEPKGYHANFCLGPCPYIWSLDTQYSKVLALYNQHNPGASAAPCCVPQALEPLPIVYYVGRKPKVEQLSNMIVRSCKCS

Substance: TGFR-Fc (R&D Systems) (from UniProt P37173 24-159) (Fc fusion)
- IC50, inhibition of TGFβ1 activity in HEK-Blue TGFβ cells (QUANTI-Blue OD 620-655 nM) (TGFβ1 (R&D systems)): 0.461 nM

Substance: recombinant IL-15 (from UniProt P40933 49-162) (ligand)
- EC50, 32Dβ cell proliferation (WST1, absorbance 450 nM) [1]: 0.0106 nM
